Results on three molecules are retold here after patent US20250282879A1 (CILAG GMBH INTERNATIONAL, published 2025).

Experiment [1] concerns the target T1, human IL-4R on cells (HEK-Blue IL-4/IL-13 cells, human PBMC, human whole blood) (human, UniProt P24394 26-825). The experiment in a line: cell-based or functional assay.
For experiment [2], the target named is T2, human IL-4R (form not stated) (human, UniProt P24394 26-232, limits assumed).
T2 construct: whole entry named; also called hIL-4R
Description: competition ELISA, hIL-4/IL-4R (plate of PRO1898). For orientation: In an ELISA, binding on a coated surface is turned into a signal by an enzyme label.

Experiment [3] addresses T2, human IL-4R (form not stated). The experiment in a line: competition ELISA, hIL-4/IL-4R (plate of PRO1899).
In experiment [4] the target is T1, human IL-4R on cells (HEK-Blue …). Description: cell-based or functional assay. The source holds these as a separate data set.
For experiment [5] the target is unchanged. Description: cell-based or functional assay. This is another data set of the same source.
The target is the same in experiment [6]. The experiment in a line: cell-based or functional assay. The source holds these as a separate data set.
For experiment [7], the target named is T3, recombinant human IL-31 protein (Peprotech) (human, UniProt Q6EBC2 24-164).
T3 sequence (looked up): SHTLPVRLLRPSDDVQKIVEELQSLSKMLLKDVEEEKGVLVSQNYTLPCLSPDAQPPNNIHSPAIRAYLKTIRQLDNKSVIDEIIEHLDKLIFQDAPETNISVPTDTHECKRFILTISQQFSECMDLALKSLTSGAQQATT
The experiment in a line: cell-based or functional assay.

Experiment [8] deals with T1, human IL-4R on cells (HEK-Blue …). The experiment in a line: cell-based or functional assay. This is another data set of the same source.
For experiment [9], the target named is T3, recombinant human IL-31 protein …. Description: cell-based or functional assay. The source holds these as a separate data set.
Experiment [10] deals with T4, recombinant cynomolgus monkey IL-31 (ECD with His Tag, Sino Biological) (cynomolgus monkey). Description: cell-based or functional assay.
Experiment [11] addresses T5, human IL-4R on transfected HEK293T cells (human, UniProt P24394 26-825).
T5 construct: whole, on cells; also called human IL-4R-expressing HEK293T cells; not shown: V5 Tag fused to the N-terminus of the expression construct
The experiment in a line: flow cytometry, transfected HEK293T cells. The source says: (§1) To test binding of the Morrison-H and Morrison-L antibodies PRO2198, PRO2199, PRO2206 and PRO2207 to human or cynomolgus IL-4R-expressing HEK293T cells, HEK293T cells were transfected with human and cynomolgus IL-4R plasmids and mock plasmid using Lipofectamine3000. Binding of an antibody targeting V5 Tag, which is fused to the N-terminus of human and cynomolgus IL-4R expression constructs, would confirm successful expression of both targets and was thus used as a positive control for plasma membranous binding. The Morrison-H molecule PRO2077 was used as negative control for cynomolgus IL-4R binding since this molecule had not shown any cross-reactivity to cynomolgus IL-4R (see section 5.3.).
(§2) 50,000 transfected HEK293T cells per well were seeded in a 96-well plate. 5-fold serial dilutions of the Morrison-H and Morrison-L antibodies PRO2198, PRO2199, PRO2206 and PRO2207 and of the control molecule PRO2077, which is not cross-reactive to cynomolgus IL-4R, were added at concentrations ranging from 5,000 to 0.32 ng/ml to the plates and incubated for 60 min at 4° C. on a shaker. Supernatants were removed and detection reagent was added for flow cytometry analysis. The geometric mean of the APC fluorescence intensity of single cells was calculated.

Experiment [12] addresses T6, cynomolgus IL-4R on transfected HEK293T cells (cynomolgus monkey, UniProt A0A2K5V580 33-832).
T6 construct: whole, on cells; also called cynomolgus IL-4R-expressing HEK293T cells; not shown: V5 Tag fused to the N-terminus of the expression construct
Description: flow cytometry, transfected HEK293T cells.
Source text: as §1, §2
In general terms: A flow cytometer gives signals particle by particle.

Experiment [13] concerns the target T4, recombinant cynomolgus monkey IL-31 …. Description: SPR, Morrison captured on immobilized human IL-4R-Fc, IL-31 analyte. In general terms: SPR reads the build-up and loss of mass on a sensor chip optically.
In experiment [14] the target is T7, recombinant human IL-4R protein (ECD with His Tag, Sino Biological) (human, UniProt P24394 26-232).
T7 construct: extracellular domain; bought; also called human IL-4R ECD; not shown: His Tag
The experiment in a line: SPR, Morrison captured via anti-human IgG-Fc, IL-4R ECD-His analyte. How it is done:
(§3) Binding kinetics (including affinity) of the bispecific Morrison-H (PRO2198, PRO2199) and Morrison-L (PRO2206, PRO2207) molecules to recombinant human IL-4R protein (ECD with His Tag, Sino Biological) were determined by SPR analysis on a T200 device (Biacore, Cytiva). In this SPR experiment, Morrison molecules were captured via an anti-human IgG-Fc antibody (Human Antibody Capture Kit; Biacore, Cytiva) covalently immobilized to a carboxylmethylated dextran surface (CM5 sensorchip; Biacore, Cytiva) and a titration series of human IL-4R ECD was injected as analyte. After each analyte injection cycle, the sensor chip was regenerated (MgCl₂), and new Morrison antibody was subsequently re-captured. […] The apparent dissociation (kd) and association (kₐ) rate constants and the apparent dissociation equilibrium constant (KD) were calculated with the Biacore analysis software (Biacore Evaluation software Version 3.2, Cytiva) using one-to-one Langmuir binding model and quality of the fits was monitored based on Chi2 and U-value, which are measures for the quality of the curve fitting. The binding level was calculated as the maximum stability binding achieved normalized to the theoretical Rmax. Cross-reactivity to cynomolgus monkey IL-4R was measured using the same setup as for the analysis of human IL-4R kinetics, with the difference that recombinant cynomolgus monkey IL-4R (ECD with His-tag, Acro Biosystems) protein was used as analyte instead of human IL-4R.

For experiment [15], the target named is T8, recombinant cynomolgus monkey IL-4R (ECD with His-tag, Acro Biosystems) (cynomolgus monkey, UniProt A0A2K5V556 26-232).
T8 construct: bought; also called cynomolgus IL-4R
T8 sequence (A0A2K5V556 entry or part of it limits assumed): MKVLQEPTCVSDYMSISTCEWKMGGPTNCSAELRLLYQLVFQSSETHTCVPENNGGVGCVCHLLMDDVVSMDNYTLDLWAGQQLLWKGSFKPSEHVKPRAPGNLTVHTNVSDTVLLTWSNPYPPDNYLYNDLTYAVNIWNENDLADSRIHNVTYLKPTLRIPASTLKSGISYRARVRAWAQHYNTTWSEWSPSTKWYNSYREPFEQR
Described as above. How it is done:
as §3

Experiment [16] concerns the target T3, recombinant human IL-31 protein …. The experiment in a line: cell-based or functional assay. The source holds these as a separate data set.
Experiment [17] shares this target. Description: cell-based or functional assay. This is another data set of the same source.
The target is the same in experiment [18]. The experiment in a line: competitive ELISA, hIL-31/hIL-31RA. How it is done: Potency of the two humanized scFvs was further determined using a competitive ELISA. The potency of each scFv to inhibit the interaction between human IL-31 and human IL-31RA was assessed by an ELISA using the same procedure as described in EP20216938.9.
Experiment [19] deals with T9, human IL-31-His (human, UniProt Q6EBC2 24-164).
T9 construct: captured via an anti-His tag antibody; also called human IL-31 (scFv SPR); not shown: His tag
T9 sequence (looked up): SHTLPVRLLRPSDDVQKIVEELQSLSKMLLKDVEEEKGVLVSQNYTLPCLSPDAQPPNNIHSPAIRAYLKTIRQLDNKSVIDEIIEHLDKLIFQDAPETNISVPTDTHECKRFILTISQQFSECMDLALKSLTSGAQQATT
The experiment in a line: SPR, IL-31-His captured, scFv analyte (30 and 10 nM). How it is done:
(§4) Affinity of the two humanized scFvs to human and cynomolgus IL-31 was determined by SPR analysis on a T200 device (Biacore, GE Healthcare). Cynomolgus IL-31 was manufactured on demand by Sino Biological since it was not available commercially. Human and cynomolgus IL-31-His was captured via an anti-His tag antibody coupled to a carboxylmethylated dextran surface and the scFvs were injected as analyte. After each analyte injection cycle the sensor chip was regenerated and new antigen was captured. The scFvs were measured using a dose response multi-cycle kinetic assay in a high-throughput mode with two concentrations (30 and 10 nM) diluted in running buffer. Obtained sensorgrams were fitted using a 1:1 binding model.
Affinity of PRO1643 and of the optimized anti-IL-31 scFvs to human IL-31 was determined by SPR analysis on a T200 device (Biacore, GE Healthcare), as described above in section 2.2.2. The scFvs were measured using a dose response multi-cycle kinetic assay in a high-throughput mode with two concentrations (30 and 10 nM) diluted in running buffer. Obtained sensorgrams were fitted using a 1:1 binding model.

Experiment [20] addresses T9, human IL-31-His. Description: SPR, IL-31-His captured, scFv analyte, screening mode. How it is done: as §4
In experiment [21] the target is T9, human IL-31-His. The experiment in a line: SPR, IL-31-His captured, scFv analyte, full titration mode.

Read-outs that look alike come from different tables or passages of the source.

Broadly, the IC50 is the concentration that inhibits the measured activity by half. In general, EC50 refers to the concentration that produces a half-maximal response. What is called Kd is the equilibrium constant for the complex coming apart. As usually defined, the koff is the first-order rate constant of dissociation. The term kon denotes a measure of how fast the partners come together.

T6 sequence (A0A2K5V580 entry or part of it): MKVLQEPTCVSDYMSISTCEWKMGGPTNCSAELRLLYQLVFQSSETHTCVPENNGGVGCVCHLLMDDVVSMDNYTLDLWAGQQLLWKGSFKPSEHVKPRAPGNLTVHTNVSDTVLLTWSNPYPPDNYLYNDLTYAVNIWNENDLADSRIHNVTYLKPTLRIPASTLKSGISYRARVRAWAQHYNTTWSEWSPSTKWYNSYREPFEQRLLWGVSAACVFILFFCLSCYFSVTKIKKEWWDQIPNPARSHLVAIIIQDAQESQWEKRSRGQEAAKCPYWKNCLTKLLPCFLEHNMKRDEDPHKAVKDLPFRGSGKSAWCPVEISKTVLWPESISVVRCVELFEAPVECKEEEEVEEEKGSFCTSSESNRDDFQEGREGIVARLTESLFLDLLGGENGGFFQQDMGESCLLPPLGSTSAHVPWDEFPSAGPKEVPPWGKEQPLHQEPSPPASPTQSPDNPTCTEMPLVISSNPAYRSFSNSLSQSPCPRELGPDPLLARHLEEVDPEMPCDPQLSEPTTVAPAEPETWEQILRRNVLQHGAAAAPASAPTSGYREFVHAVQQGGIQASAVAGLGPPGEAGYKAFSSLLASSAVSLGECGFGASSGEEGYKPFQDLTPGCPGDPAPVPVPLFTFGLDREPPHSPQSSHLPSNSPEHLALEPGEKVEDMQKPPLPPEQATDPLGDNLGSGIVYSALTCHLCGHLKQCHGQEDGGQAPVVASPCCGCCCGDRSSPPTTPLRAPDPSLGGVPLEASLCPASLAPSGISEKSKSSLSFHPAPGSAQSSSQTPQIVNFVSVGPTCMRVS

B1: dupilumab (antibody, V domains shown)
VH: EVQLVESGGGLEQPGGSLRLSCAGSGFTFRDYAMTWVRQAPGKGLEWVSSISGSGGNTYYADSVKGRFTISRDNSKNTLYLQMNSLRAEDTAVYYCAKDRLSITIRPRYYGLDVWGQGTTVTVSS
VL: DIVMTQSPLSLPVTPGEPASISCRSSQSLLYSIGYNYLDWYLQKSGQSPQLLIYLGSNRASGVPDRFSGSGSGTDFTLKISRVEAEDVGFYYCMQALQTPYTFGQGTKLEIKR
In the case of B1, the “IC50, neutralization of hIL-4 induced signaling, stat-6 reporter gene assay” value in [1] was found to be 1.15 ng/mL. The “IC50, neutralization of hIL-13 induced signaling, stat-6 reporter gene assay” value in [1] was found to be 1 ng/mL. Further, the IC50 in experiment [2] is 6.78 ng/mL; in [3], 6.18 ng/mL.

B2: PRO2198 (bispecific antibody, human IgG4 S228P, kappa)
light: DIQMTQSPSSLSARVGDRVTITCQASEDIESYLAWYQQKPGKAPKLLIYRASTLAYGVPSRFSGSGSGRDFTLTISSLQPEDFATYYCLGSSYSTGSNIFGQGTKVEIKRTVAAPSVFIFPPSDEQLKSGTASVVCLLNNFYPREAKVQWKVDNALQSGNSQESVTEQDSKDSTYSLSSTLTLSKADYEKHKVYACEVTHQGLSSPVTKSFNRGEC
heavy: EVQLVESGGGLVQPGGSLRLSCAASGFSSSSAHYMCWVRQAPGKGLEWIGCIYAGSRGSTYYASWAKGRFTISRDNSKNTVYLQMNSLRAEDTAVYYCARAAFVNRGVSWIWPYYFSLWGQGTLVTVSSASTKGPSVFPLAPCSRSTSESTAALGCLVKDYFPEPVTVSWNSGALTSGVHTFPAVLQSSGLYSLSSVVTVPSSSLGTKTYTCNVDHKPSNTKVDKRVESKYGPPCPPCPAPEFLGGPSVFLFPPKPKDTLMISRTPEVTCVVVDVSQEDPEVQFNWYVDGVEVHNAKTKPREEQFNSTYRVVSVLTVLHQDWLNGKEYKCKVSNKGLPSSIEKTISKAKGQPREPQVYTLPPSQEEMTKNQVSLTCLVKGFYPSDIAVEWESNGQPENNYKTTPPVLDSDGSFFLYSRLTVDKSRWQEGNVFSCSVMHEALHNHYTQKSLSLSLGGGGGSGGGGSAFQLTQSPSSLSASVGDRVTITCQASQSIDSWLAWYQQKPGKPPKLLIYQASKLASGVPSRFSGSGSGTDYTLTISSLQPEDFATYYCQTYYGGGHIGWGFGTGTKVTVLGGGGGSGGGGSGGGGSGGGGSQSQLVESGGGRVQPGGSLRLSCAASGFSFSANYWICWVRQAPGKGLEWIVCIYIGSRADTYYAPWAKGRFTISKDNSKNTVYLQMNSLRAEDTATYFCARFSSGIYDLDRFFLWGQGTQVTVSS
notes: IgG4 (S228P) Morrison-H, anti-IL-4R Fab arms, anti-IL-31 scFv on the C-terminus of the heavy chain; tetravalent, bispecific; also called Morrison-H; MorrH
Consider B2, for which the “IC50, IL-4-induced TARC secretion in human whole blood” value in experiment [4] was less than 0.5 nM. For the same molecule, the “Mean IC50, human IL-4-induced signaling, stat-6 reporter gene assay” value in experiment [5] came to 0.0239 nM. For the same molecule, the “Mean IC50, human IL-13-induced signaling, stat-6 reporter gene assay” value in [6] was determined as 0.0221 nM. Also, the “Mean IC50, human IL-31-induced signaling, IL-31RA/OSMR dimerization assay” value in [7] was 0.198 nM. Further, in experiment [8], the “IC50, IL-4-induced CD23 expression, memory B cells” value turned out to be 4.47 nM; the “IC50, IL-4-induced CD23 expression, monocytes (blood donor 1)” value was 0.0904 nM; the “IC50, IL-4-induced CD23 expression, naive B cells” value came out at 1.37 nM. The “IC50 (read off the curve), human IL-31-induced IL-31RA/OSMR dimerization, with an excess of IL-4R extracellular domain in the medium” value in [9] was approximately 0.2 nM. Further, the “IC50, cynomolgus IL-31-induced IL-31RA/OSMR dimerization (RLU) [table under the graph]” value in experiment [10] was 0.959 nM. Further, the EC50 in [11] was found to be 1.11 nM. Further, the response in experiment [12] was half-maximal at 0.97 nM (EC50). Besides, the Kd in experiment [13] was determined as 0.01 nM. For the same molecule, in [14], the Kd was determined as 0.291 nM, the koff is 0.000101 s⁻¹ and the kon was determined as 352000 M⁻¹ s⁻¹. Further, in experiment [15], the dissociation constant (Kd) stood at 0.144 nM, the koff is 4.9e-05 s⁻¹ and the kon was determined as 370000 M⁻¹ s⁻¹.

B3: PRO1643 (scFv, V domains shown)
VH: QSQLVESGGGLVQPGGSLRLSCAASGFSFSANYWICWVRQAPGKGLEWIVCIYIGSRADTYYAPWAKGRFTISKDNSKNTVYLQMNSLRAEDTAVYFCARFSSGIYDLDRFFLWGQGTLVTVSS
V domain: AFQLTQSPSSLSASVGDRVTITCQASQSIDSWLAWYQQKPGKPPKLLIYQASKLASGVPSRFSGSGSGTDYTLTISSLQPEDFATYYCQTYYGGGHIGWGFGTGTKVTV
notes: anti-IL-31 scFv, full graft; VL entry ends with LCDR3 (no FR4); also called 50-09-D07-sc03
Regarding B3, the “IC50, neutralization of hIL-31-induced signaling in IL-31RA/OSMR dimerization assay” value turned out to be 11.1 ng/mL in experiment [16] and 8.08 ng/mL in experiment [17]. The IC50 in experiment [18] is 4.58 ng/mL. In addition, the figures for the Kd with human IL-31-His [19], with human IL-31-His [20] and with human IL-31-His [21] were 1.13 nM, 0.505 nM and 0.63 nM, respectively. For the same molecule, the koff worked out at 0.000653 s⁻¹ with human IL-31-His [19], 0.000447 s⁻¹ in the experiment with human IL-31-His [20] and 0.000516 s⁻¹ in the experiment with human IL-31-His [21]. The kon in the experiment with human IL-31-His [19] was determined as 579000 M⁻¹ s⁻¹; with human IL-31-His [20], 884000 M⁻¹ s⁻¹; with human IL-31-His [21], 820000 M⁻¹ s⁻¹.
